Assay results from the supplement of paper PMC12764529.
± gives the half width of the 95% confidence interval.

Key:
[1] = folding stability dG unfold from chymotrypsin proteolysis; higher = more stable
Summary of the method: (§1)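 How resistant each design was to proteolysis was captured as K50, inferred by Bayesian fitting of sequencing counts. Unfolding free energy was then derived relative to a sequence-predicted unfolded-state K50 and a shared folded-state K50, per protease or combined. Digestion used trypsin and chymotrypsin at 11 threefold-diluted concentrations plus a no-protease condition, on mini-proteins under 80 residues without cysteine in a PA-tagged cDNA display construct. Designs were kept only when AlphaFold2 dimer inter-PAE was above 15.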

[2] = folding stability dG unfold from trypsin proteolysis; higher = more stable
Summary of the method: as §1

[3] = folding stability dG unfold (combined trypsin and chymotrypsin); higher = more stable
Summary of the method: as §1

Row | Sequence | folding stability dG unfold [1] [kcal/mol] | folding stability dG unfold [2] [kcal/mol] | folding stability dG unfold [3] [kcal/mol]
1 | SAGGSAGGKAEKITLEIPNTGKKVEIIKPENKAIITVYDKNGKPIKTIVVPPNFPGIEDAVKADSAGGSAGG [r6_424_TrMRF] | 0.773 ± 0.061 | -0.267 ± 0.068 | 0.434 ± 0.12
2 | SAGGSAGGKETKTITMIIKVKDENGKELKAGDKVEIEINGKKITIEVTYNKKTGYLVVKATIKPSAGGSAGG [r6_657_TrROS_Hall] | 3.87 ± 0.11 | 2.47 ± 0.096 | 3.37 ± 0.17
3 | SAGGSAGGKEVYKIKVKNAEIVDFDEETGELTIKLKETGKEIKIPLKAIKKIEITDDYIYIYVESAGGSAGG [r6_313_TrROS_Hall] | 4.21 ± 0.13 | 3.64 ± 0.25 | 4.15 ± 0.17
4 | SAGGSAGGKIDLKDLKIVKIETVKNENGETFYRVVIEVDGKKIVLTVPENMSLEELLKKLKELSSAGGSAGG [r6_232_TrROS_Hall] | 4.22 ± 0.055 | 3.36 ± 0.13 | 4.07 ± 0.081
5 | SAGGSAGGKIKLDGKEIVIVMSKEEKEKIAKELKEKFPNVKIKVVEGMSEEEAAKKADLVIVFDSAGGSAGG [r6_679_TrROS_Hall] | 0.0544 ± 0.23 | -0.142 ± 0.18 | -0.269 ± 0.39
6 | SAGGSAGGKIKPGEKVKVKVKIKNKNGEVFEATATVVDGKIFIEVDGKIYEISADDIEEIEVEPSAGGSAGG [r6_132_TrROS_Hall] | 2.92 ± 0.099 | 1.47 ± 0.042 | 2.37 ± 0.22
7 | SAGGSAGGKIKVEIEYNGEKKEMTLDEIKALLKKNLPPNATIRVKKNGKTIPLKKVKVKKLKKKSAGGSAGG [r6_936_TrROS_Hall] | 1.65 ± 0.15 | 1.08 ± 0.069 | 1.35 ± 0.18
8 | SAGGSAGGKIKVEYNPENNMYRVTIKLPGGKIKIYIPPGQTEEQGEKNVKHMAKELLKKNGIKISAGGSAGG [r6_679_TrROS] | 1.47 ± 0.14 | -0.0228 ± 0.46 | 1.17 ± 0.44
9 | SAGGSAGGKIPPNMEIEPWRFGGKPYFLIRMPNGSYQVFEFKGDKLKIKETIPVPPGDWILIKFSAGGSAGG [r6_476_TrROS] | 1.98 ± 0.16 | 1.48 ± 0.04 | 1.81 ± 0.14
10 | SAGGSAGGKITITLPGAEIVSVEESEDGKTITITVRLENGELLKITLKRVNGKWYITKIELLKPSAGGSAGG [r6_718_TrROS_Hall] | 4.524 ± 0.038 | 3.54 ± 0.086 | 4.34 ± 0.068
11 | SAGGSAGGKKFKPGQVVLDPKTKELYVIKGEVTVKEDGSLSIKVEKVKLPKPKKLTKEQLEKLKSAGGSAGG [r6_771_TrROS_Hall] | 0.613 ± 0.23 | 0.687 ± 0.067 | 0.783 ± 0.16
12 | SAGGSAGGKKIRIRIPLPDGTWVEVEVYFSEDGIYSFYIPPTGKLVLIDVGENGIKITIIDLPPSAGGSAGG [r6_58_TrMRF] | 4.47 ± 0.27 | 4.1 ± 0.32 | 4.38 ± 0.43
13 | SAGGSAGGKKKKKKKKKYYTFVLKVKEKDLTPEEIKKLFPNVKIEKKDGYLVITVKVNGKEIKFSAGGSAGG [r6_738_TrROS_Hall] | 2.66 ± 0.12 | 1.43 ± 0.19 | 2.11 ± 0.31
14 | SAGGSAGGKKKVLILPKGKKKEYTIEEAKKILKEKLPENAKVRLLETGKEYPVKDLLKKLGIDLSAGGSAGG [r6_936_TrMRF] | -0.411 ± 0.65 | -0.276 ± 0.28 | -0.207 ± 0.45
15 | SAGGSAGGKKKVLLVKVEIELPNGEKLELVAESEEEALEALKKLLEKKGLKIKKVEIVELEEKESAGGSAGG [r6_405_TrROS_Hall] | 2.41 ± 0.051 | 1.64 ± 0.071 | 2.17 ± 0.077
16 | SAGGSAGGKKTVEIEMTVDELLAALKSLSEEELKNVKIIGKDGKEFTLEDLEKNPGKIYKIEVKSAGGSAGG [r6_428_TrROS_Hall] | 2.23 ± 0.074 | 0.694 ± 0.07 | 1.82 ± 0.16

Row | Sequence | folding stability dG unfold [1] [kcal/mol] | folding stability dG unfold [2] [kcal/mol] | folding stability dG unfold [3] [kcal/mol]
17 | SAGGSAGGKKVYEIKGLTPEQIRALVKENKGKVTIYYKDGKKEEKTIKEGDEIAPGETVYIEVESAGGSAGG [r6_303_TrROS_Hall] | 1.74 ± 0.13 | 0.858 ± 0.11 | 1.56 ± 0.21
18 | SAGGSAGGKLENLPENVTEVRIEKNENGEYTIYVRNKETNEYVKLKVEKKDGEWKIVEKEVFPKSAGGSAGG [r6_937_TrROS_Hall] | 3.02 ± 0.047 | 2.09 ± 0.12 | 2.74 ± 0.26
19 | SAGGSAGGKLPKNIEKIEFNKKTNIIKVKVKSLEDLKKLAEKLNFEIVSVEEKDGYIYIKIKKKSAGGSAGG [r6_380_TrROS_Hall] | 2.796 ± 0.027 | 1.86 ± 0.038 | 2.47 ± 0.081
20 | SAGGSAGGKLVLKIKIYNKKTKKVYEFEIEADSLEELKEALKKLGLPKDVKIVSVELRPLDEEPSAGGSAGG [r6_23_TrROS_Hall] | 4.96 ± 0.075 | 3.65 ± 0.1 | 4.79 ± 0.092
21 | SAGGSAGGKNWRTIPFMIWIPPGAPPIEFEIPLPDGWKVEIEISVVRNPDGWYFIMFSITVQPDSAGGSAGG [r6_510_TrROS] | 3.85 ± 0.17 | 3.12 ± 0.28 | 3.81 ± 0.22
22 | SAGGSAGGKPKPVLRTFEVRDPATGELYKVELVVLDDGSVRALVTRRDGRKREFTFDAPASLILSAGGSAGG [r6_588_TrMRF] | 2.08 ± 0.042 | 1.59 ± 0.019 | 1.88 ± 0.047
23 | SAGGSAGGKRKIEIHIIIPPGMPPEWRKKAIEIAKWFAKTLAQENNREVEIKIEIFVLDGMPPWSAGGSAGG [r6_204_TrROS] | 3.71 ± 0.076 | 2.82 ± 0.19 | 3.6 ± 0.33
24 | SAGGSAGGKRTVQIQFPMGPQWLDKLRDAFPNVDIEELEYDEGPGWHRIKIKVDSPEKIRDFIKSAGGSAGG [r6_334_TrROS] | 1.41 ± 0.079 | 0.63 ± 0.19 | 0.991 ± 0.18
25 | SAGGSAGGKTISIPGSIEEIQEKLGGPIDEVEHNKPGSGSYKPKNGKPITIHFDSPEDILDFFKSAGGSAGG [r6_19_TrROS] | -0.0753 ± 0.15 | 0.318 ± 0.032 | 0.206 ± 0.12
26 | SAGGSAGGKTIVIDMSIEEIAKKLGLEIVEVKKNKDGSVTITLKNGKKITIKVKSPEDLLKAIKSAGGSAGG [r6_13_TrROS_Hall] | 3.03 ± 0.15 | 1.65 ± 0.11 | 2.54 ± 0.29
27 | SAGGSAGGKTYIVKIVVKNKNGEELELTLEVETEEEAKEAAEELAKKLEEAGYEIVKVEIKKLPSAGGSAGG [r6_869_TrROS_Hall] | 4.11 ± 0.14 | 3.64 ± 0.27 | 4.02 ± 0.2
28 | SAGGSAGGKVKFEIPNAKITSVEYDPNPGLLKVEFELPNGLKLTAIFKIDKDKAILAKIEISPESAGGSAGG [r6_718_TrMRF] | 3.51 ± 0.045 | 2.57 ± 0.071 | 3.23 ± 0.081
29 | SAGGSAGGLEIAKELGFEKIEIEEVKENRVVLKLKDKNGKEYKIEFEFDPETGEIKILKIEPLPSAGGSAGG [r6_526_TrMRF] | 4.19 ± 0.1 | 3.1 ± 0.21 | 4.12 ± 0.13
30 | SAGGSAGGLKEALKLAEELGAKPHVVKTKGNSEIVFLELKDGRKIRLLVENGKIKEIIPIPETPSAGGSAGG [r6_548_TrMRF] | 2.39 ± 0.065 | 1.86 ± 0.065 | 2.08 ± 0.17
31 | SAGGSAGGLKPGEEWLILFRIDIEIEPMPPNMSPDMAKRFPNMYHIEVKIDILIIPAEDLKELFSAGGSAGG [r6_831_TrROS] | 3.74 ± 0.042 | 3.17 ± 0.13 | 3.51 ± 0.13
